Here are results for two molecules from patent US20070054848A1, “Composition and method for nerve regeneration” (priority 2003, published 2007).

One assay deals with nerve regeneration. The assay can be described thus: Similar experiments with modified amino acid agents (Example 2-8). On the procedure: Similar experiments were carried out using Pep5 in which alanine was added to the C terminus of the sequence (SEQ ID NO: 2), antibodies for the extracellular domain of p75, and p75 in which alanine was replaced with valine at amino acid 423 in positions 273-427 of SEQ ID NO: 4.

The test system of assay [1] is RhoA complexed with Rho GDI. The assay can be described thus: In vitro nucleotide exchange assay. Conditions: high Mg2+ concentrations; 90 nM Dbl. The format is biochemical. The protocol:
Lipid-modified RhoA was purified from yeast membranes as described (Forget, M. A., Desrosiers, R. R., Gingras, D. & Beliveau, R., Biochem. J. 361, 243-54(2002)). [^3H]GDP- or GDP-RhoA complexed with Rho GDI was obtained by first incubating GDP-RhoA with or without [^3H]GDP, followed by incubation with Rho GDI for 30 min, as described previously (Takahashi, K. et al., J. Biol. Chem. 272, 23371-23375 (1997)). The sample, subjected to gel filtration, was equilibrated with 20 mM Tris-HCl (pH 7.5) containing 5 mM MgCl2, 1 mM dithiothreitol and 0.1% CHAPS. The GDP dissociation and GTP binding assays were carried out by the filter binding method as described previously (Hart, M. J., Eva, A., Evans, T., Aaronson, S. A. & Cerione, R. A., Nature 354, 311-314 (1991)). In the [^3H]GDP dissociation assay, 50 nM of the complex was incubated for 20 min with various concentrations of GST-fused proteins in a reaction mixture (50 μl) containing 30 mM Tris-HCl (pH 7.5), 5 mM or 0.5 μM MgCl2, 1 (for low Mg) or 10 (for high Mg) mM EDTA, 0.1 mM GTP, 1 mM dithiothreitol, 0.12% CHAPS and 0.2 mg/ml bovine serum albumin. In the [^35S] GTPγS binding assay, the complex was incubated as described above except that 1 μM [^35S] GTPγS was used instead of 0.1 mM GTP. At the indicated time, an aliquot of the reaction sample was removed, and passed through nitrocellulose filters (IPVH 000, Millipore). […]

B1: p75 in which alanine was replaced with valine at amino acid 423: p75 with alanine replaced with valine at amino acid 423 in positions 273-427 of SEQ ID NO: 4 (protein, listed as Homo sapiens)
chain: KRWNSCKQNKQGANSRPVNQTPPPEGEKLHSDSGISVDSQSLHDQQPHTQTASGQALKGDGGLYSSLPPAKREEVEKLLNGSAGDTWRHLAGELGYQPEHIDSFTHEACPVRALLASWATQDSATLDALLAALRRIQRADLVESLCSESTVTSPV
B1: the nerve regeneration result with nerve regeneration is reported as “nerve regeneration was similarly observed”.

B2: p75 ICD: intracellular domain (ICD) of p75, GST-fused (protein)
chain: KRWNSCKQNKQGANSRPVNQTPPPEGEKLHSDSGISVDSQSLHDQQTHTQTASGQALKGDGNLYSSLPLTKREEVEKLLNGDTWRHLAGELGYQPEHIDSFTHEACPVRALLASWGAQDSATLDALLAALRRIQRADIVESLCSESTATSPV
modifications: left off: a dimerising Fc or GST
notes: intracellular domain (ICD) of p75, GST-fused
In the case of B2, the “Dbl stimulated dissociation of GDP from GDP-RhoA complexed with Rho GDI” value in assay [1] is recorded as “showed the inhibitory effect to the same extent as p75 HD”.
